According to publication PMC12562645, “Enhancement of Activity of Thermophilic Inorganic Pyrophosphatase Ton1914 via Site-Directed Mutagenesis” (Biomolecules, 2025):
Positions count from the first letter of the chain named. Names may count otherwise.

B1: Ton1914 (Thermococcus onnurineus NA1) (protein)
chain: MNPFHELEPGPEVPEVVYALIEIPKGSRNKYELDKKTGLLKLDRVLYSPFFYPVDYGIIPQTWYDDGDPFDIMVIMREPVYPLTIVEARPIGIMKMEDSGDKDWKVLAVPVEDPYFNDWKDIDDVPKAFLDEIAHFFQRYKELQGKVTTVEGWGTAEEAKREILRAIEMYKEKFGKKE
notes: pET28a-Ton1914 expressed in E. coli BL21(DE3); heat-treated (80 °C) supernatant concentrated by ultrafiltration
B2: Ton1914 (Thermococcus onnurineus NA1; E97Y/L42F) (protein)
chain: B1 chain with L42F, E97Y
notes: as for B1
B3: Ton1914 (Thermococcus onnurineus NA1; D101K/E97Y) (protein)
chain: B1 chain with E97Y, D101K
notes: as for B1
B4: Ton1914 (Thermococcus onnurineus NA1; E97Y) (protein)
chain: B1 chain with E97Y
notes: as for B1
B5: Ton1914 (Thermococcus onnurineus NA1; L42F) (protein)
chain: B1 chain with L42F
notes: as for B1
B6: Ton1914 (Thermococcus onnurineus NA1; D101K/L42F) (protein)
chain: B1 chain with L42F, D101K
notes: as for B1
B7: Ton1914 (Thermococcus onnurineus NA1; D101K) (protein)
chain: B1 chain with D101K
notes: as for B1

These proteins were tested on O=P(O)(O)OP(=O)(O)O (assay: purified protein). Conditions: Mg2+, 90 °C, pH 9, pyrophosphate 0.05–1.0 mM, unit mM doubtful (M would fit the substrate range).
Assay type: biochemical, Thermococcus onnurineus
For B1, the Km was 3.03 ± 0.18 × 10^−4 mM.
B2 was tested, and the Km was 8.49 ± 0.30 × 10^−4 mM.
For B3, the Km was 3.48 ± 0.27 × 10^−4 mM.
B4 was tested, and the Km was 5.94 ± 0.14 × 10^−4 mM.
B5 was tested, and the Km was 3.18 ± 0.05 × 10^−4 mM.
In the case of B6, the Km is reported as 6.34 ± 0.82 × 10^−4 mM.
For B7, the Km was 1.03 ± 0.04 × 10^−4 mM.
